5 molecules from US20230019342A1 can be followed below.

For data set [1], the target named is Active Akt2 (with N terminal His6 tag) (human) (UniProt P31751). Description: cell-based or functional assay.
In data set [2] the target is Inactive Akt2 (with N terminal His6 tag) (human) (UniProt P31751). Description: ELISA, immobilised C-tL, active against inactive Akt2 (FIG. 23E). On the technique in general: In an ELISA, binding on a coated surface is turned into a signal by an enzyme label.
Data set [3] concerns the target Active Akt2 (with N terminal His6 tag) (human) (UniProt P31751). As to the kind of experiment: single component ELISA, C-tL as surface-localized capture agent (FIG. 23A).
Data set [4] has as its target Active Akt1 (with N terminal His6 tag) (human) (UniProt P31749). Description: ELISA, C-tL immobilised on streptavidin plate, 25 nM His6 tagged full protein, anti His6 detection, triplicate.
Data set [5] concerns the target Active Akt3 (with N terminal His6 tag) (human) (UniProt Q9Y243). Described as above.
In data set [6] the target is T1, N-tL (not fully specified).
T1 chain 1: WKVKL
T1 chain 2: HNGYF
T1 chain 3: XYYRFG

Data set [7] addresses Active Akt2 (with N terminal His6 tag) (human) (UniProt P31751). Description: single-component immunoassay (ELISA, mono-L as detection agent, FIG. 23A).
For data set [8] the target is unchanged. As to the kind of experiment: not stated there (summary of the ELISA and SPR results).
For data set [9] the target is unchanged. As to the kind of experiment: single component ELISA, N-tL as surface-localized capture agent (FIG. 23A).
For data set [10] the target is unchanged. As to the kind of experiment: SPR, Biacore T100, N-tL immobilised on SA chip, Akt2 protein as analyte, 1:1 model, 10° C. On the technique in general: SPR reads the build-up and loss of mass on a sensor chip optically.
Data set [11] shares this target. Description: single-component ELISA (bi-L as detection agent, FIG. 23A).

Square brackets hold non-standard residues; d marks the D form. Primed or numbered codes have the meaning given here. Ends that are not written are not given here. * marks the point of attachment. D‑Lys(pentyne) = D-Lys(pentyne) amide, alkyne-bearing D-lysine, C#CCCC(=O)NCCCC[C@@H](N*)C(N)=O; S3(3) = biotin-PEG2-acylated azidolysine clicked to D-Pra carrying 5-azido-pentanoic acid; Lys(N3) = [N-]=[N+]=NCCCC[C@H](N)C(=O)O; S3″ = biotin-PEG2 linker with azide; dPra = C#CC[C@@H](N)C(=O)O

Sequence of Active Akt1 (with N terminal His6 tag) (human) (P31749 other isoform, or with tags, fused parts or gaps): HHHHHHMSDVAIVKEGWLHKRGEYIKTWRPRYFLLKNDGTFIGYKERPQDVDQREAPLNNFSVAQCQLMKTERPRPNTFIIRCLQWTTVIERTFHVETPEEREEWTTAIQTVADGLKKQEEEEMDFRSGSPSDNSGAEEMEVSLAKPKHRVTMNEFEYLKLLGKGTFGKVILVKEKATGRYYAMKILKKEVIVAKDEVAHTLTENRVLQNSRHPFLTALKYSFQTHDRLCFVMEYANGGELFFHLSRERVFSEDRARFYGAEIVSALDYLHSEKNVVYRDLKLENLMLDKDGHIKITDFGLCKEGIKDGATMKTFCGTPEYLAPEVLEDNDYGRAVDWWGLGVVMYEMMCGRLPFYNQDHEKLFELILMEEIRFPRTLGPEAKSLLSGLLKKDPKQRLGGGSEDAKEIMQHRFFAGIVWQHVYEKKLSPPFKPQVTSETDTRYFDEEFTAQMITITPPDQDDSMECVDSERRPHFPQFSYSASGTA
Sequence of Active Akt3 (with N terminal His6 tag) (human) (Q9Y243 other isoform, or with tags, fused parts or gaps): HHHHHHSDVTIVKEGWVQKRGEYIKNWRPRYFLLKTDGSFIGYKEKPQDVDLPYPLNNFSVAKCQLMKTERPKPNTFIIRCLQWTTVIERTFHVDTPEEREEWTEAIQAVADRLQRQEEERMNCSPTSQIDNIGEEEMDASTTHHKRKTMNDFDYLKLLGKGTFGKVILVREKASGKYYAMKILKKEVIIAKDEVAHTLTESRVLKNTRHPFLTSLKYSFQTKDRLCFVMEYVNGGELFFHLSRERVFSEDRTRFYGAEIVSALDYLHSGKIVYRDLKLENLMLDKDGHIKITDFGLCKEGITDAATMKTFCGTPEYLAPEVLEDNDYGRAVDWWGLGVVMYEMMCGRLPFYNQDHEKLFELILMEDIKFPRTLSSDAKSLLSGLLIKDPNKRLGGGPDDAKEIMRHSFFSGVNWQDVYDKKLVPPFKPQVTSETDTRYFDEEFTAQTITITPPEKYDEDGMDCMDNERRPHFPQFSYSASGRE

B1: C-tL (peptide)
peptide 1: Ac-[Lys(N3)][dH][dD]GG[dF]-NH2
peptide 2: {S3″}-[dW][dK][dV][dK]-{D‑Lys(pentyne)-NH2}
peptide 3: [dH][dN]G[dY][dF][dPra]
modifications: not fully specified (bridges); also: branched three-arm conjugate, triazole at chain A 1 to a chain's C-terminus, triazole to a chain's N/C-terminus via S3
Broadly, the EC50 is the concentration that produces a half-maximal response. Read a low EC50 as greater potency. In [1], B1 came in with an Akt2 kinase activity: phosphorylation of the GSK-3α/β substrate, Western blot, EC50 of 4 µM. In data set [2], the selectivity ratio (p-Akt2 over Akt2) (fold (ratio, reference p-Akt2)) was determined as 5. The molecule further registered an EC50 in data set [3] of 125 nM. In addition, in data set [4], the selectivity ratio (Akt2 over Akt1) (fold (ratio, reference full-length Akt2)) came to 5. Moreover, the selectivity ratio (Akt2 over Akt3) (fold (ratio, reference full-length Akt2)) in data set [5] was found to be 10.

B2: Active Akt2 (with N terminal His6 tag) (protein)
chain: HHHHHHMNEVSVIKEGWLHKRGEYIKTWRPRYFLLKSDGSFIGYKERPEAPDQTLPPLNNFSVAECQLMKTERPRPNTFVIRCLQWTTVIERTFHVDSPDEREEWMRAIQMVANSLKQRAPGEDPMDYKCGSPSDSSTTEEMEVAVSKARAKVTMNDFDYLKLLGKGTFGKVILVREKATGRYYAMKILRKEVIIAKDEVAHTVTESRVLQNTRHPFLTALKYAFQTHDRLCFVMEYANGGELFFHLSRERVFTEERARFYGAEIVSALEYLHSRDVVYRDIKLENLMLDKDGHIKITDFGLCKEGISDGATMKTFCGTPEYLAPEVLEDNDYGRAVDWWGLGVVMYEMMCGRLPFYNQDHERLFELILMEEIRFPRTLSPEAKSLLAGLLKKDPKQRLGGGPSDAKEVMEHRFFLSINWQDVVQKKLLPPFKPQVTSEVDTRYFDDEFTAQSITITPPDRYDSLGLLELDQRTHFPQFSYSASIRE
Regarding B2, the “Akt2 kinase activity: phosphorylation of the GSK-3α/β substrate, Western blot” value in data set [6] is on record as “The N-tL was found to activate Akt2”.

B3: mono-L (peptide)
peptide: [dPra][dW][dK][dV][dK][dL]-NH2
modifications: not fully specified (residue 1, N-terminus); printed as (D-Pra)-wkvkl; also: D-Pra side chain clicked (triazole) to azide of S1 (azidolysine-PEG2-biotin), biotin label
In turn, B3 came in with an affinity in data set [7] of 3 µM.

B4: N-tL (peptide)
peptide 1: [dW][dK][dV][dK][dL]
peptide 2: [dH][dN]G[dY][dF]
peptide 3: Ac-[dPra][dY][dY][dR][dF]G-NH2
modifications: not fully specified (bridges)
Broadly, the Kd is the constant that tells how readily two partners part at equilibrium. Lower therefore signals higher affinity. Molecule B4 had an affinity in data set [8] of 20 nM. In [9], this molecule showed an EC50 of 19 nM. In data set [10], the Kd is 25 nM.

B5: bi-L (peptide)
peptide 1: {S3(3)}-[dW][dK][dV][dK][dL]-NH2
peptide 2: [dH][dN]G[dY][dF][dPra]
modifications: triazole (positions not given here); also: branched two-arm conjugate, triazole to a chain's N/C-terminus via S3
Take B5: the affinity in data set [11] is 1 µM.
